Assay [1] deals with T1, full length human DLL4 (human, UniProt Q9NR61 27-685).
T1 construct: whole, on cells; also called native DLL4 expressed in HEK293 cells
Put plainly: FMAT, hybridoma supernatant, 293T cells with human DLL4. Put shortly:
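Transfected 293T cells (3000 expressing plus 15000 mock-transfected per well), in PBS with 2% FBS, were mixed with hybridoma supernatant and Cy5 goat anti-human IgG Fc (750 ng/ml final). After 3 h at room temperature, binding was read by FMAT fluorescence. Notch1/Fc served as positive control for DLL4 and Notch3/Fc for Jagged1.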

The next assay addresses T2, human Jagged1 (human, UniProt P78504 34-1218).
T2 construct: whole, on cells
Put plainly: FACS, HEK-293 cells stably overexpressing human Jagged1. Here is the method:
The ability of the purified antibodies to bind to human Jagged1 and Dll1 was determined by FACS analysis. […] Cells were resuspended in PBS containing 2% FCS and seeded at 50000 cells/well into V-bottomed plates. Anti-DLL4 antibodies diluted in PBS containing 2% FCS were added at a final concentration of 5 or 15 μg/ml and plates were incubated for 1 h at 4° C. […] Data was analyzed by comparing the shift in geometric mean fluorescence in the mock-transfected cells to that observed in the Jagged1- or Dll1-transfected cells and is shown in Tables 16 and 17.
A general note: Flow cytometry measures light scatter and fluorescence of single cells or particles in a stream.

A further assay has as its target T3, human Dll1 (human, UniProt O00548 18-723).
T3 construct: whole, on cells
T3 sequence (looked up): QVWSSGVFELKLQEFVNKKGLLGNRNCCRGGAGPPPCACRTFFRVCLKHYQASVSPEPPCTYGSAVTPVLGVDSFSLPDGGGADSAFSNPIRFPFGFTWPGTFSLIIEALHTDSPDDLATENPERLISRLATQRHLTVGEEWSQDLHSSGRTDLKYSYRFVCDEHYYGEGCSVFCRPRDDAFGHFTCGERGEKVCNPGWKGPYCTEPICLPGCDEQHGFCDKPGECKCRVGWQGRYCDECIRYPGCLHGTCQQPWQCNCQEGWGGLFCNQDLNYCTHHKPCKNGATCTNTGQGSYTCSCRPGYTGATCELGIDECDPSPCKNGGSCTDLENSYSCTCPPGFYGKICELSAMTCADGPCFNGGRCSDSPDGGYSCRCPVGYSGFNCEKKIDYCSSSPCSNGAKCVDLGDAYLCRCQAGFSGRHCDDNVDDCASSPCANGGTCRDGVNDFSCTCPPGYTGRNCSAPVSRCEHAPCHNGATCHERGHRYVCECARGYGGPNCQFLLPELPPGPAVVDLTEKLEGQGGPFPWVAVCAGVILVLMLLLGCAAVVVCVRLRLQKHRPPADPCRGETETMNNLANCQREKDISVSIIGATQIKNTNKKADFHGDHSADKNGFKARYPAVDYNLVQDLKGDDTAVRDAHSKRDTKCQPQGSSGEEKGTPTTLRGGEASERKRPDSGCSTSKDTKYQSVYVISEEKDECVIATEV
Put plainly: FACS, HEK-293 cells stably overexpressing human Dll1.

Assay [2] concerns the target T1, full length human DLL4. Put plainly: FMAT competition, supernatant vs Alexa-647 human Notch1/Fc, 293T cells with human DLL4; FMAT competition with Alexa-647 human Notch1/Fc, native human DLL4 on 293T cells, 4 C, n = 3. Here is the method: (§1) Transfected and untransfected 239T cells were reconstituted in PBS containing 2% FCS and 5000 transfected and 17500 non-transfected cells were plated in 20 μl into wells of a 384-well tissue culture plate (Corning Costar, catalog #3712). Subsequently, 20 μl of hybridoma supernatant was added and plates were incubated at 4° C. for 1 h, at which time 20 μl of Alexa-647 labeled human Notch1/Fc was added at a final concentration of 6.7 ng/ml. After a further 3 h incubation at 4° C., the amount of bound Notch1/Fc was determined by reading the fluorescence in each well using an FMAT 8200 instrument (Applied Biosystems). Results are expressed as % inhibitions with the minimum inhibition in the assay being determined by the effects of non-DLL4 binding supernatants prepared in a similar way as described in example 2, and the maximum inhibition being defined as the signal obtained in the presence of a saturating concentration of unlabeled Notch1/Fc. N.T.=not tested

In assay [3] the target is T1, full length human DLL4. Put plainly: FMAT competition, supernatant vs Alexa-647 human Notch1/Fc, 293T cells with human DLL4; FMAT competition with Alexa-647 human Notch1/Fc, native human DLL4 on 293T cells, 4 C, n = 2. Here is the method:
as §1

Assay [4] deals with T1, full length human DLL4. Put plainly: FACS competition vs 0.25 µg/ml human Notch1/Fc, HEK293 cells with human DLL4. Here is the method:
Further experiments were performed on selected antibodies using HEK293 cells that were stably transfected with either human, mouse or cynomolgus monkey DLL4 using retroviral constructs. In these experiments, anti-DLL4 antibodies (final concentration: 10-0.01 μg/ml) diluted in PBS containing 2% FCS were added to DLL4-expressing HEK 293 cells (50000 cells/well diluted in PBS containing 2% FCS) and incubated for 1 h at 4° C. Subsequently, Alexa-647 labeled human, rat or APC labeled mouse Notch1/Fc (e.g. R&D Systems, catalog #3647-TK-050, 1057-TK-050, 5267-TK-050, respectively) was added at a final concentration of 0.01-0.5 μg/ml and plates were incubated for a further 2 h at 4° C. prior to washing and reading on a FACSCalibur instrument.

Assay [5] has as its target T1, full length human DLL4. Put plainly: FMAT, hybridoma supernatant, 293T cells with human DLL4; FMAT, hybridoma supernatant, native full length human DLL4 on live 293T cells, room temperature. On the procedure:
Cells diluted in PBS containing 2% FBS were seeded at a density of 3000 expressing and 15000 mock transfected cells per well in 384 well plates (Corning Costar, catalog #3712). Immediately after plating, 15 or 20 μl/well of hybridoma supernatants and 10 μl/well of secondary antibody (Goat anti-human IgG Fc Cy5, final concentration 750 ng/ml) were added and plates incubated for 3 h at room temperature prior to reading the fluorescence on the FMAT 8200 instrument (Applied Biosystems). The binding of human Notch1/Fc chimera (R&D systems, catalog #3647-TK), diluted 1:2 from 2.86 μg/ml was used as a positive control for DLL4 and human Notch3/Fc chimera diluted from 10 μg/ml was used a positive control for binding to Jagged1. Results for 12 hybridoma supernatants showing binding of hybridoma supernatants to human/cynomolgus monkey DLL4 and human Jagged are shown in Table 3.

Consider 4 molecules from patent US20100196385A1 (AstraZeneca / MedImmune, published 2010).

In general, IC50 refers to the concentration that inhibits the measured activity by half. Low values mean greater potency, high ones weaker potency.

T1 sequence (Q9NR61 27-685): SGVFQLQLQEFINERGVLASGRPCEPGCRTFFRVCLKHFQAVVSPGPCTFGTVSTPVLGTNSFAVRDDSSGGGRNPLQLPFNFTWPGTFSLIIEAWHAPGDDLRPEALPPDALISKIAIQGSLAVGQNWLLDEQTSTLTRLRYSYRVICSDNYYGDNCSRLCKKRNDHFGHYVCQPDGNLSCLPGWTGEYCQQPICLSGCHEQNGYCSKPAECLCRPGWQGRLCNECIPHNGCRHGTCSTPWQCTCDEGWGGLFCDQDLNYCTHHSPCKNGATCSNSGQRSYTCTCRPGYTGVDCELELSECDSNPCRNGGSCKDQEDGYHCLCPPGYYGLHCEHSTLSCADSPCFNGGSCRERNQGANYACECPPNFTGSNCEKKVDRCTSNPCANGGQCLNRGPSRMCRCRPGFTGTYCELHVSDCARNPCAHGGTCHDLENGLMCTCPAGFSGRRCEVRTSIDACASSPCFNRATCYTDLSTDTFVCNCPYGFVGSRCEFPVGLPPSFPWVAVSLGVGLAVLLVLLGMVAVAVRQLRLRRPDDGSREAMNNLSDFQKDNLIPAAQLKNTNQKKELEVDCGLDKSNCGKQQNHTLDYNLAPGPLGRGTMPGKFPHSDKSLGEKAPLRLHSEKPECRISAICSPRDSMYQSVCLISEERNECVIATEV
T2 sequence (P78504 34-1218): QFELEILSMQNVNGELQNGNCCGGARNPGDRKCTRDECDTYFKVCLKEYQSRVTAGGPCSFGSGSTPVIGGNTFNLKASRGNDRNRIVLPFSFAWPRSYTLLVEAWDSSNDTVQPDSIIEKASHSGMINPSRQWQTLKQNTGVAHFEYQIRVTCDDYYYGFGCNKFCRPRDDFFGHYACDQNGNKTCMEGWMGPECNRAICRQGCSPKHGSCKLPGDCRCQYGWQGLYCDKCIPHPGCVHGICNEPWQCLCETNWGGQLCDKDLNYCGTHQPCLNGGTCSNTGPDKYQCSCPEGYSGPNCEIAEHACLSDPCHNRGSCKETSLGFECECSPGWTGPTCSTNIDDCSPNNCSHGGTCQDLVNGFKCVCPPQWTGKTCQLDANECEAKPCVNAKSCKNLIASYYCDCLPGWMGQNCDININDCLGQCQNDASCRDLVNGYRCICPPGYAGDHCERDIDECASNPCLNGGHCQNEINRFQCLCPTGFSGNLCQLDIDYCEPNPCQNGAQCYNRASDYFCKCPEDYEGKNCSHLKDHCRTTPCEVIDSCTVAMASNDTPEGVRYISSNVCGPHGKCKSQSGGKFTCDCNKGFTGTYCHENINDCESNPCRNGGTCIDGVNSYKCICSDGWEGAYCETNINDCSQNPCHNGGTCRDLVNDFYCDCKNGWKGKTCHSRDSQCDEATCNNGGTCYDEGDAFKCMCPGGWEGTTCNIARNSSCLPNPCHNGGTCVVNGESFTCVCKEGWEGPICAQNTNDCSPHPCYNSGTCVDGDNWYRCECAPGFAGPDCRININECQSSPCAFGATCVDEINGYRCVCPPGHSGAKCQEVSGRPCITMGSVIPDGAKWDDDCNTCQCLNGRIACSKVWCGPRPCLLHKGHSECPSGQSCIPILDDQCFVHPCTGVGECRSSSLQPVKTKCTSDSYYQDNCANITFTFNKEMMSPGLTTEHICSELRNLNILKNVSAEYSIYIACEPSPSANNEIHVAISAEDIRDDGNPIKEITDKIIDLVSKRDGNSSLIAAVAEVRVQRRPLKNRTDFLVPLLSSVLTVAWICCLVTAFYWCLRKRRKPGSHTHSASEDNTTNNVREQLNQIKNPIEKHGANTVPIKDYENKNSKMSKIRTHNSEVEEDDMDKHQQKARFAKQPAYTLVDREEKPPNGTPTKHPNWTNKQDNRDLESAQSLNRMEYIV

B1: 2H10 (antibody, IgG4, V domains shown)
VH: QVQLVESGGGVVQPGRSLRLSCAASGFTFSRHGMHWVRQAPGKGLEWVAVVWFDGSNIYYADSVKGRFTISRDNSKNTLYLQMNSLRAEDTAMYYCARDSRIAAADYWGQGTLVTVSS
VL: SYELTQPPSVSVSPGQTVSITCSGDKLGDKYVCWYQQKPGQSPVLVIYQESKRPSGIPERFSGSSSGNTATLTISGTQAMDEADYYCQTWDSSLVVFGGGTKLTVL
notes: Fully human; used for IgG4 rows and where no isotype is printed; also called 2H10 IgG4
Turning to B1, in the assay with full length human DLL4 [1], the Count is 191, the FL1 worked out at 10800 and the FL1 x count came to 2.06e+06. In addition, the binding result in the assay with human Jagged1 is reported as “no binding”. Moreover, the binding result with human Dll1 was “no binding”.

B2: 4B4 (antibody, IgG4, V domains shown)
VH: QVLLIQSGAEVKKPGASVQVSCKASGYTFTNYGVIWVRQAPGQGLEYMGWISAYNGNTNYAQKLQDRVTMTSDTSTTTAYMELRSLRSDDTAVYYCARELGSSFDYWGQGTLVTVSS
VL: SYELTQPPSVSVSPGQTARITCSGDALPKKYAYWYQQKSGQAPVLVIYEDIKRPSGIPERFSGSSSGTMATLTISGAQVEDEADYYCFSTDNSGDHSVFGGGTKLTVL
notes: Fully human; used for IgG4 rows and where no isotype is printed; also called 4B4 IgG4; 4B4.1
Turning to B2, in the assay with full length human DLL4 [2], the “% inhibition n = 3” value was 148%. The “% inhibition n = 2” value with full length human DLL4 [3] is 109%. Moreover, the binding result with human Jagged1 was “no binding”. For the same molecule, the binding result with human Dll1 is “no binding”. The 50% inhibitory concentration (IC50) in the assay with full length human DLL4 [4] worked out at 1.62 nM. In the assay with full length human DLL4 [5], the Count came to 194, the FL1 was found to be 9930 and the FL1 x count was determined as 1.93e+06.

B3: 21H3 (antibody, IgG4, V domains shown)
VH: QVQLVQSGAEVKKPGASVKVSCKASGYTFTNYGITWVRQAPGQGPEWMGWISAYNGNTNYAQKLQDRVTVTTDTSTSTAYMELRSLRSDDTAVYYCARDRVPRIPVTTEAFDIWGQGTMVTVSS
VL: QSVLTQPPSASGTPGQRVTISCSGSSSNIGSYFVYWYQQLPGTAPKLLIYRNNQRPSGVPDRFSGSESGTSASLAISGLRSEDEADYYCAAWDDSLSGHWVFGGGTRLTVL
notes: Fully human; used for IgG4 rows and where no isotype is printed; also called 21H3 IgG4
Take B3: the “% inhibition n = 3” value with full length human DLL4 [2] was 140%. The “% inhibition n = 2” value in the assay with full length human DLL4 [3] was determined as 131%. In the assay with full length human DLL4 [4], this molecule yielded an IC50 of 1.59 nM. In the assay with full length human DLL4 [5], this molecule came in with a Count of 181, an FL1 of 10500 and an FL1 x count of 1.91e+06.

B4: 9G8 (antibody, IgG4, V domains shown)
VH: QLQLQESGPGLVKPSETLSLSCTVSGGSISSSSSYWGLIRQPPGKGLEWIGSIYYSGSTYYSPSLKSRVSISVDTSKNQFSLKLSSVTAADTAVYFCARQGYGGHPDVFDIWGQGTMVTVSS
VL: SSELTQSPSVSVSPGQTARITCSGDKLGDVYVCWYQQKTGQSPVLVIYEDTKRPSGIPERFSGSNSGNTATLTISGTQVMDEADYYCQAWDSTTAVIFGGGTKLTVL
notes: Fully human; used for IgG4 rows and where no isotype is printed; also called 9G8 IgG4
In the assay with full length human DLL4 [1], B4 yielded a Count of 198, an FL1 of 9810 and an FL1 x count of 1.94e+06.
